# *1 amine or outer side, *2 acyl side, *3 side chain or, on linkers, in order; H or OH if unused. Where no end group is shown, it is not given here. Side-chain parts run from the residue outwards. [ ]: non-standard residue; d: D form. The star is where a group is joined. C16 diacid = O=C(O)CCCCCCCCCCCCCCC(=O)*; γGlu = O=C(O)[C@H](CCC(=O)[*:2])N[*:1]; NMeV = CN[C@H](C(=O)O)C(C)C; Decanoyl = CCCCCCCCCC(=O)*; Api = NC1(C(=O)O)CCNCC1; Hexanoyl = CCCCCC(=O)*; Aib = CC(C)(N)C(=O)O
# T1: CRF1R receptor (UniProt P34998 24-415, limits assumed)
# T1 sequence (looked up): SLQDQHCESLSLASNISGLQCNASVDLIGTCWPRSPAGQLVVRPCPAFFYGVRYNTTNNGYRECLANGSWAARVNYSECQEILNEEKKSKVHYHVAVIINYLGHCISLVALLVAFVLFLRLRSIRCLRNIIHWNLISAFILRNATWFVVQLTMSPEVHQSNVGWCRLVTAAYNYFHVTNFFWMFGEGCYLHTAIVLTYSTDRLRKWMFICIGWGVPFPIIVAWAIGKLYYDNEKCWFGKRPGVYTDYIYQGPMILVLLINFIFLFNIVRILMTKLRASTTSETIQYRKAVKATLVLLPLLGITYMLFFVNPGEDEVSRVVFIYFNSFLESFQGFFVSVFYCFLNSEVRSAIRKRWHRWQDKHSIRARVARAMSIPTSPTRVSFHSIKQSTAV
# Experiments:
# CRF1R receptor = target: T1, CRF1R receptor; assay: cell-based or functional assay
# [1] = target: human corticotropin-releasing factor 2a (CRF2a receptor) (human), Q13324; assay: cell-based or functional assay
# Chain of human corticotropin-releasing factor 2a (CRF2a receptor) (human), Q13324 (Q13324 20-411): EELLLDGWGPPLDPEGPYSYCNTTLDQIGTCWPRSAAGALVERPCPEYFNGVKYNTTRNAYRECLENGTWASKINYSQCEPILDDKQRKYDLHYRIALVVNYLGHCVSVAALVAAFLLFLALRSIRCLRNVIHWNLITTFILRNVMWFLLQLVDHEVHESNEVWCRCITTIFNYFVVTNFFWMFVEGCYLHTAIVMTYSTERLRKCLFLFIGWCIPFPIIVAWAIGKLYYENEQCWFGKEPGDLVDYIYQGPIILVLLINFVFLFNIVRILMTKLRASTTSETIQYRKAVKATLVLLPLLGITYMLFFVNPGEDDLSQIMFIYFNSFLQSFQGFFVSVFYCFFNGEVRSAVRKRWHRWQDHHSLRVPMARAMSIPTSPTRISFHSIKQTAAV
Binder,Emax (% I) (CRF1R receptor),EC50 [nM] (cAMP) [1],EC50 (CRF1R receptor)
Hexanoyl-VLSLD[dV]PIKLK([γGlu-C16 diacid])KILLEQEKQKKQREQAETN[Api]QILAQV-NH2 (SMILES CCCCCC(=O)N[C@H](C(=O)N[C@@H](CC(C)C)C(=O)N[C@@H](CO)C(=O)N[C@@H](CC(C)C)C(=O)N[C@@H](CC(=O)O)C(=O)N[C@@H](C(=O)N1CCC[C@H]1C(=O)N[C@H](C(=O)N[C@@H](CCCCN)C(=O)N[C@@H](CC(C)C)C(=O)N[C@@H](CCCCNC(=O)CC[C@H](NC(=O)CCCCCCCCCCCCCCC(=O)O)C(=O)O)C(=O)N[C@@H](CCCCN)C(=O)N[C@H](C(=O)N[C@@H](CC(C)C)C(=O)N[C@@H](CC(C)C)C(=O)N[C@@H](CCC(=O)O)C(=O)N[C@@H](CCC(N)=O)C(=O)N[C@@H](CCC(=O)O)C(=O)N[C@@H](CCCCN)C(=O)N[C@@H](CCC(N)=O)C(=O)N[C@@H](CCCCN)C(=O)N[C@@H](CCCCN)C(=O)N[C@@H](CCC(N)=O)C(=O)N[C@@H](CCCNC(=N)N)C(=O)N[C@@H](CCC(=O)O)C(=O)N[C@@H](CCC(N)=O)C(=O)N[C@@H](C)C(=O)N[C@@H](CCC(=O)O)C(=O)N[C@H](C(=O)N[C@@H](CC(N)=O)C(=O)NC1(C(=O)N[C@@H](CCC(N)=O)C(=O)N[C@H](C(=O)N[C@@H](CC(C)C)C(=O)N[C@@H](C)C(=O)N[C@@H](CCC(N)=O)C(=O)N[C@H](C(N)=O)C(C)C)[C@@H](C)CC)CCNCC1)[C@@H](C)O)[C@@H](C)CC)[C@@H](C)CC)C(C)C)C(C)C) [SEQ ID NO 157],30%,0.32 nM,
Ac-IVLSLD[dV]PIKLK([γGlu-C16 diacid])KILLEQEKQKAQREQAETN[Aib]QILAQV-NH2 (SMILES CC[C@H](C)[C@H](NC(C)=O)C(=O)N[C@H](C(=O)N[C@@H](CC(C)C)C(=O)N[C@@H](CO)C(=O)N[C@@H](CC(C)C)C(=O)N[C@@H](CC(=O)O)C(=O)N[C@@H](C(=O)N1CCC[C@H]1C(=O)N[C@H](C(=O)N[C@@H](CCCCN)C(=O)N[C@@H](CC(C)C)C(=O)N[C@@H](CCCCNC(=O)CC[C@H](NC(=O)CCCCCCCCCCCCCCC(=O)O)C(=O)O)C(=O)N[C@@H](CCCCN)C(=O)N[C@H](C(=O)N[C@@H](CC(C)C)C(=O)N[C@@H](CC(C)C)C(=O)N[C@@H](CCC(=O)O)C(=O)N[C@@H](CCC(N)=O)C(=O)N[C@@H](CCC(=O)O)C(=O)N[C@@H](CCCCN)C(=O)N[C@@H](CCC(N)=O)C(=O)N[C@@H](CCCCN)C(=O)N[C@@H](C)C(=O)N[C@@H](CCC(N)=O)C(=O)N[C@@H](CCCNC(=N)N)C(=O)N[C@@H](CCC(=O)O)C(=O)N[C@@H](CCC(N)=O)C(=O)N[C@@H](C)C(=O)N[C@@H](CCC(=O)O)C(=O)N[C@H](C(=O)N[C@@H](CC(N)=O)C(=O)NC(C)(C)C(=O)N[C@@H](CCC(N)=O)C(=O)N[C@H](C(=O)N[C@@H](CC(C)C)C(=O)N[C@@H](C)C(=O)N[C@@H](CCC(N)=O)C(=O)N[C@H](C(N)=O)C(C)C)[C@@H](C)CC)[C@@H](C)O)[C@@H](C)CC)[C@@H](C)CC)C(C)C)C(C)C) [SEQ ID NO 161],3%,0.32 nM,
[NMeV]LSLD[dV]PIKLK([γGlu-C16 diacid])KILLEQEKQKKQREQAETN[Api]QILAQV-NH2 (N-terminus assumed; SMILES CC[C@H](C)[C@H](NC(=O)[C@H](CCC(N)=O)NC(=O)C1(NC(=O)[C@H](CC(N)=O)NC(=O)[C@@H](NC(=O)[C@H](CCC(=O)O)NC(=O)[C@H](C)NC(=O)[C@H](CCC(N)=O)NC(=O)[C@H](CCC(=O)O)NC(=O)[C@H](CCCNC(=N)N)NC(=O)[C@H](CCC(N)=O)NC(=O)[C@H](CCCCN)NC(=O)[C@H](CCCCN)NC(=O)[C@H](CCC(N)=O)NC(=O)[C@H](CCCCN)NC(=O)[C@H](CCC(=O)O)NC(=O)[C@H](CCC(N)=O)NC(=O)[C@H](CCC(=O)O)NC(=O)[C@H](CC(C)C)NC(=O)[C@H](CC(C)C)NC(=O)[C@@H](NC(=O)[C@H](CCCCN)NC(=O)[C@H](CCCCNC(=O)CC[C@H](NC(=O)CCCCCCCCCCCCCCC(=O)O)C(=O)O)NC(=O)[C@H](CC(C)C)NC(=O)[C@H](CCCCN)NC(=O)[C@@H](NC(=O)[C@@H]2CCCN2C(=O)[C@H](NC(=O)[C@H](CC(=O)O)NC(=O)[C@H](CC(C)C)NC(=O)[C@H](CO)NC(=O)[C@H](CC(C)C)NC(=O)[C@@H](NC)C(C)C)C(C)C)[C@@H](C)CC)[C@@H](C)CC)[C@@H](C)O)CCNCC1)C(=O)N[C@@H](CC(C)C)C(=O)N[C@@H](C)C(=O)N[C@@H](CCC(N)=O)C(=O)N[C@H](C(N)=O)C(C)C) [SEQ ID NO 160],2%,2.08 nM,
Ac-IVLSLD[dV]PIALK([γGlu-C16 diacid])KILLEQEKQKKQREQAETN[Aib]QILAQV-NH2 (SMILES CC[C@H](C)[C@H](NC(C)=O)C(=O)N[C@H](C(=O)N[C@@H](CC(C)C)C(=O)N[C@@H](CO)C(=O)N[C@@H](CC(C)C)C(=O)N[C@@H](CC(=O)O)C(=O)N[C@@H](C(=O)N1CCC[C@H]1C(=O)N[C@H](C(=O)N[C@@H](C)C(=O)N[C@@H](CC(C)C)C(=O)N[C@@H](CCCCNC(=O)CC[C@H](NC(=O)CCCCCCCCCCCCCCC(=O)O)C(=O)O)C(=O)N[C@@H](CCCCN)C(=O)N[C@H](C(=O)N[C@@H](CC(C)C)C(=O)N[C@@H](CC(C)C)C(=O)N[C@@H](CCC(=O)O)C(=O)N[C@@H](CCC(N)=O)C(=O)N[C@@H](CCC(=O)O)C(=O)N[C@@H](CCCCN)C(=O)N[C@@H](CCC(N)=O)C(=O)N[C@@H](CCCCN)C(=O)N[C@@H](CCCCN)C(=O)N[C@@H](CCC(N)=O)C(=O)N[C@@H](CCCNC(=N)N)C(=O)N[C@@H](CCC(=O)O)C(=O)N[C@@H](CCC(N)=O)C(=O)N[C@@H](C)C(=O)N[C@@H](CCC(=O)O)C(=O)N[C@H](C(=O)N[C@@H](CC(N)=O)C(=O)NC(C)(C)C(=O)N[C@@H](CCC(N)=O)C(=O)N[C@H](C(=O)N[C@@H](CC(C)C)C(=O)N[C@@H](C)C(=O)N[C@@H](CCC(N)=O)C(=O)N[C@H](C(N)=O)C(C)C)[C@@H](C)CC)[C@@H](C)O)[C@@H](C)CC)[C@@H](C)CC)C(C)C)C(C)C) [SEQ ID NO 163],53%,0.3 nM,190 nM

# Now from value to binder:
Emax (% I) (CRF1R receptor),EC50 [nM] (cAMP) [1],EC50 (CRF1R receptor),Binder
0%,0.49 nM,,Ac-IVLSLD[dV]PIKLK([γGlu-C16 diacid])KILLEQEKQK[Aib]QREQAETN[Aib]QILAQV-NH2 [SEQ ID NO 162]
4%,2.97 nM,,[NMeV]LSLD[dV]PIKLK([γGlu-C16 diacid])KILLEQEKQKKQREQAETN[Aib]QILAQV-NH2 (N-terminus assumed; SMILES CC[C@H](C)[C@H](NC(=O)[C@H](CCC(N)=O)NC(=O)C(C)(C)NC(=O)[C@H](CC(N)=O)NC(=O)[C@@H](NC(=O)[C@H](CCC(=O)O)NC(=O)[C@H](C)NC(=O)[C@H](CCC(N)=O)NC(=O)[C@H](CCC(=O)O)NC(=O)[C@H](CCCNC(=N)N)NC(=O)[C@H](CCC(N)=O)NC(=O)[C@H](CCCCN)NC(=O)[C@H](CCCCN)NC(=O)[C@H](CCC(N)=O)NC(=O)[C@H](CCCCN)NC(=O)[C@H](CCC(=O)O)NC(=O)[C@H](CCC(N)=O)NC(=O)[C@H](CCC(=O)O)NC(=O)[C@H](CC(C)C)NC(=O)[C@H](CC(C)C)NC(=O)[C@@H](NC(=O)[C@H](CCCCN)NC(=O)[C@H](CCCCNC(=O)CC[C@H](NC(=O)CCCCCCCCCCCCCCC(=O)O)C(=O)O)NC(=O)[C@H](CC(C)C)NC(=O)[C@H](CCCCN)NC(=O)[C@@H](NC(=O)[C@@H]1CCCN1C(=O)[C@H](NC(=O)[C@H](CC(=O)O)NC(=O)[C@H](CC(C)C)NC(=O)[C@H](CO)NC(=O)[C@H](CC(C)C)NC(=O)[C@@H](NC)C(C)C)C(C)C)[C@@H](C)CC)[C@@H](C)CC)[C@@H](C)O)C(=O)N[C@@H](CC(C)C)C(=O)N[C@@H](C)C(=O)N[C@@H](CCC(N)=O)C(=O)N[C@H](C(N)=O)C(C)C) [SEQ ID NO 159]
54%,0.04 nM,98.7 nM,Decanoyl-VLSLD[dV]PIKLK([γGlu-C16 diacid])KILLEQEKQKKQREQAETN[Aib]QILAQV-NH2 (SMILES CCCCCCCCCC(=O)N[C@H](C(=O)N[C@@H](CC(C)C)C(=O)N[C@@H](CO)C(=O)N[C@@H](CC(C)C)C(=O)N[C@@H](CC(=O)O)C(=O)N[C@@H](C(=O)N1CCC[C@H]1C(=O)N[C@H](C(=O)N[C@@H](CCCCN)C(=O)N[C@@H](CC(C)C)C(=O)N[C@@H](CCCCNC(=O)CC[C@H](NC(=O)CCCCCCCCCCCCCCC(=O)O)C(=O)O)C(=O)N[C@@H](CCCCN)C(=O)N[C@H](C(=O)N[C@@H](CC(C)C)C(=O)N[C@@H](CC(C)C)C(=O)N[C@@H](CCC(=O)O)C(=O)N[C@@H](CCC(N)=O)C(=O)N[C@@H](CCC(=O)O)C(=O)N[C@@H](CCCCN)C(=O)N[C@@H](CCC(N)=O)C(=O)N[C@@H](CCCCN)C(=O)N[C@@H](CCCCN)C(=O)N[C@@H](CCC(N)=O)C(=O)N[C@@H](CCCNC(=N)N)C(=O)N[C@@H](CCC(=O)O)C(=O)N[C@@H](CCC(N)=O)C(=O)N[C@@H](C)C(=O)N[C@@H](CCC(=O)O)C(=O)N[C@H](C(=O)N[C@@H](CC(N)=O)C(=O)NC(C)(C)C(=O)N[C@@H](CCC(N)=O)C(=O)N[C@H](C(=O)N[C@@H](CC(C)C)C(=O)N[C@@H](C)C(=O)N[C@@H](CCC(N)=O)C(=O)N[C@H](C(N)=O)C(C)C)[C@@H](C)CC)[C@@H](C)O)[C@@H](C)CC)[C@@H](C)CC)C(C)C)C(C)C) [SEQ ID NO 158]
